Columns and labels:
[1] = target: TNFα (Homo sapiens, UniProt P01375); experiment: Neutralization of TNFα cytotoxicity on L929 cells (crystal violet staining); assay type: cell-based; settings: for IC50 of cytotoxicity inhibition, TNFα treated: actinomycin D 3 μg/ml, TNFα 0.5~2 ng/ml (100% cytotoxicity), 16~18 hrs
Procedure: (§1) An L929 cell [ATCC, Mus musculus (mouse), NCTC clone 929 (derivative of strain L; L-929; L cell) was used for testing the effect of TNFR/Fc fusion protein on the inhibition of cytotoxicity induced by TNFα and TNFβ. This analysis was based on the TNFR activity of inhibiting cytotoxicity induced by TNF (Scallon et al., Cytokine 7:759, 1995).
(§2) L929 cells were inoculated to be 3×10^4 cells/well in 96-well plates, and incubated at 37° C. for 24 hrs in a CO2 incubator. Subsequently, actinomycin D (Sigma, USA) was added to 3 μg/ml, and cells were incubated for 16˜18 hrs with TNFα and TNFβ in the concentration of expressing 100% cytotoxicity (0.5˜2 ng/ml), and with serially 10 times diluted TNFR sample. Then, the cells in the 96-well plate were stained by the staining reagent, crystal violet (Wake Pure Chemical Industries, Japan) and the activity of the cells was estimated by the degree of absorbance at 595 nm wavelength using a spectrophotometer (Bio-Rad, Model-550, Japan).

[2] = target: T1, TNFβ (Homo sapiens, UniProt P01374); experiment: Neutralization of TNFβ cytotoxicity on L929 cells (crystal violet staining); assay type: cell-based; settings: for IC50 of cytotoxicity inhibition, TNFβ treated: actinomycin D 3 μg/ml, TNFβ 0.5~2 ng/ml (100% cytotoxicity), 16~18 hrs
T1 sequence (P01374 35-205): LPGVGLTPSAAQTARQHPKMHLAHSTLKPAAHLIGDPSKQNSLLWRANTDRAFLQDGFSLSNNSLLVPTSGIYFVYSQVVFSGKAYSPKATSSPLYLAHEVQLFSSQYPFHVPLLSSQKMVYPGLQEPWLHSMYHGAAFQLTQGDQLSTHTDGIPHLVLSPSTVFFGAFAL
Procedure: as §1, §2

TNFα, sequence (P01375 77-233 limits assumed, species assumed): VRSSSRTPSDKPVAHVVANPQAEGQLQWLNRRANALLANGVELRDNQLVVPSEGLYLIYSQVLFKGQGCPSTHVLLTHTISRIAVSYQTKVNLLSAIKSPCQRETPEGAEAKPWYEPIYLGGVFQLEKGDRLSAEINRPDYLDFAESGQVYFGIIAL

Substance: [TNFR1/Fc]2: conventional simple fusion dimeric protein: soluble extracellular domain of human TNFR1 fused to IgG1 Fc; monomer SEQ ID NO: 2 [reference compound]
- IC50 of cytotoxicity inhibition, TNFα treated [1]: 63 µg/mL
- IC50 of cytotoxicity inhibition, TNFβ treated [2]: 129 µg/mL

Substance: [TNFR1-TNFR1/Fc]2: concatameric fusion dimeric protein: two TNFR1 soluble extracellular domains in tandem fused to IgG1 Fc; monomer SEQ ID NO: 6
- IC50 of cytotoxicity inhibition, TNFα treated [1]: 9 µg/mL
- inhibitory effect on the cytotoxicity induced by TNFα, compared with simple dimeric fusion proteins ([1]; versus TNFR1/Ig and TNFR2/Ig): higher inhibitory effect
- IC50 of cytotoxicity inhibition, TNFβ treated [2]: 20 µg/mL
- inhibitory effect on the cytotoxicity induced by TNFβ, compared with simple dimeric fusion proteins ([2]; versus TNFR1/Ig and TNFR2/Ig): higher inhibitory effect

From patent publication US8372961B2, “Polynucleotides encoding concatameric immunoadhesion molecules” (Medexgen Co., Ltd., priority 2001, dated 2013)
